The results in this text go back to patent publication US20260356937 (published 2026).

The target in assay [1] is ILT4 (CHO-S/ILT4 cells) (human). Briefly: FACS.
Assay [2] shares this target. Kind of assay: FACS, assay 2. Background: Flow cytometry measures light scatter and fluorescence of single cells or particles in a stream.
The target is the same in assay [3]. Kind of assay: FACS, assay 4.
The target is the same in assay [4]. Briefly: FACS, assay 3.

ILT4 (CHO-S/ILT4 cells) (human), sequence (chain, as listed by the source): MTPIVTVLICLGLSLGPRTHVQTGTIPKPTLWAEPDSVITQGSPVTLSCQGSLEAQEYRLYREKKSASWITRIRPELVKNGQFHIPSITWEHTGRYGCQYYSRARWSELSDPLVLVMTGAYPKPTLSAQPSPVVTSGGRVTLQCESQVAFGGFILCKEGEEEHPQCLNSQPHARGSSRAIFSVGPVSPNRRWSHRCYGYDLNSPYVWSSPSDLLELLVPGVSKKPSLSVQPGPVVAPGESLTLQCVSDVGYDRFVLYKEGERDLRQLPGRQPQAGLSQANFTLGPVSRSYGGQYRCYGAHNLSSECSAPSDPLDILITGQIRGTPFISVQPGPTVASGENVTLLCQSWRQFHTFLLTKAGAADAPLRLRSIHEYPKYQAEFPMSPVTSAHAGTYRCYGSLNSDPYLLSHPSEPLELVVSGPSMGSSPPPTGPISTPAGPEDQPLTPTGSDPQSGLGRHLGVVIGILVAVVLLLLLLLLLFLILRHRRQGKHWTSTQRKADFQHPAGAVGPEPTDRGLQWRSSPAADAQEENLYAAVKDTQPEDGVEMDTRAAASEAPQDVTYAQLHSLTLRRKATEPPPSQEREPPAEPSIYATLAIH

B1: huP2-G9 (antibody, V domains shown)
VH: EVQLQESGPGLVKPSQTLSLTCTVSGSSITSGYYWNWIRQHPGKGLEWIGYLSYDGSNNYNPSLKNLVTISRDTSKNQFSLKLSSVTAADTAVYYCAREGAHYSGTLSWFAYWGQGTLVTVSS
VL: DIQMTQSPSSLSASVGDRVTITCRASENIYSNLAWYQQKPGKSPKLLVYAATNLADGVPSRFSGSGSGTDYTLTISSLQPEDFATYYCQHFWDTPYTFGGGTKVEIK
Turning to B1, the EC50 in assay [1] stood at 0.045 µg/mL.

B2: huP2-C6 (antibody, V domains shown)
VH: EVQLVQSGAEVKKPGASVKVSCKASGYTFTDYYIHWVRQAPGQGLEWMGYIYPDTGYSGYNQKFKGRVTMTVDKSTSTAYMELRSLRSDDTAVYYCTRRGDYSGVHFDYWGQGTTVTVSS
VL: DIVLTQSPDSLAVSLGERATINCRASESVNNYGVGFLHWYQQKPGQPPKLLIYRASTLESGIPDRFSGSGSGTDFTLTISSLQAEDVAVYYCQHSYKDPPWTFGGGTKVEIK
Consider B2, for which the EC50 in assay [1] is 0.0368 µg/mL.

B3: P2m (antibody, V domains shown)
VH: QVQLVQSGAEVKKPGSSVKVSCKASGYTFTSYDISWVRQAPGQGLEWMGGIIPIFGTANYAQKFQGRVTITADESTSTAYMELSSLRSEDTAVYYCTAGIFLATAYWGQGTLVTVSS
VL: DIQMTQSPSSMSASVGDRVTISCQASQDIQNYLNWYQQRPGQAPKLLIYDASTLETGVPSRFSGSGSGTYFTLTISSLQPEDVATYYCQQYENVPITFGQGTRLEIK
The molecule B3 had an EC50 in assay [1] of 0.0163 µg/mL.

B4: MK (antibody, V domains shown)
VH: EVQLQQWGAGLLKPSETLSLTCAVYGGSFSGYYWSWIRQPPGKGLEWIGEINHAGSTNYNPSLKSRVTISVDTSKNQFSLKLSSVTAADTAVYYCARLPTRWVTTRYFDLWGRGTLVTVSS
VL: ESVLTQPPSVSGAPGQRVTISCTGSSSNIGAGYDVHWYQQLPGTAPKLLIYGDSNRPSGVPDRFSVSKSGASASLAITGLQAEDEADYYCQSFDNSLSAYVFGGGTQLTVLG
Consider B4, for which the EC50 in assay [2] turned out to be 0.0415 µg/mL; in assay [3], 0.0139 µg/mL; in assay [4], 0.301 µg/mL.

In general, EC50 refers to the concentration at which the effect is half-maximal. The low end stands for higher potency in that assay, the high end for lower potency in that assay.
